Laboratory results from patent publication US20190203192A1.

Target: VEGF (UniProt P15692)
Assay: SPR (BIAcore)
Settings: Fab

Sequence of VEGF (P15692 other isoform, or with tags, fused parts or gaps): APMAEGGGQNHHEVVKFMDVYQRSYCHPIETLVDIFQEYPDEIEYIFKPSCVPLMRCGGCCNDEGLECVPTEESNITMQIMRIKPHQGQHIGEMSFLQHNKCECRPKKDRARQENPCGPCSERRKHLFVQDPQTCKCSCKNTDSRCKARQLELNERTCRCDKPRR

- Kd: 0.103 nM
Substance: anti-VEGF Fab (Lucentics) control
